According to US11203743B2, “Method for producing long-chain glycosylated genistein” (Jiangnan University, priority 2019, dated 2021):

Assay: Specificity of different cyclodextrin glucosyltransferases to glycosylated genistein products (maltodextrin donor, genistein receptor, HPLC)
Assay type: biochemical
Conditions: for content of long-chain glycosylated genistein in the reaction solution / content of short-chain glycosylated genistein in the reaction solution / ratio of the molar content of long-chain glycosylated genistein to the molar content of total glycosylated genistein in the reaction solution / ratio of the molar content of short-chain glycosylated genistein to the molar content of total glycosylated genistein in the reaction solution: 40° C., pH 6.5, 120 rpm, 20-24 hours; for specificity to long-chain glycosylated genistein products in comparison with wild type: in words, from Tables 1 to 2; for increase of the yield of long-chain glycosylated genistein compared with wild-type cyclodextrin glucosyltransferase: versus wild type
Experimental: Genistein (purchased from Sigma) was dissolved in dimethyl sulfoxide (DMSO) to prepare a genistein solution with a final concentration of 7.5 g/L; maltodextrin (purchased from Shanghai Sangon Biotech Co., Ltd.) was dissolved in a PBS buffer (50 mM, pH 6.5) to prepare a maltodextrin solution with a final concentration of 40 g/L; the freeze-fried pure enzymes of the mutants A156V/L174P, A156V/L174P/166Y, A156V/L174P/A166V, A156V/L174P/A166G, A156V/L174P/A166K, A156S, A156L and L174M obtained in Example 1 were dissolved in a PBS buffer (50 mM, pH 6.5) separately to prepare a CGTase enzyme solution with a final concentration of 15 U/L; 300 μL of the genistein solution, 500 μL of the maltodextrin solution and 200 μL of the CGTase enzyme solution were taken separately, mixed in a 2 mL vial with a lid and placed in a shaker for slow shaking at 40° C. and 120 rpm for 20-24 hours to obtain a reaction solution.
The molar content of short-chain glycosylated genistein (here the short-chain glycosylated genistein was a mixture of monoglycosylated genistein, diglycosylated genistein and triglycosylated genistein) and long-chain glycosylated genistein (here the long-chain glycosylated genistein was a mixture of tetraglycosylated genistein, pentaglycosylated genistein and hexaglycosylated genistein) in the reaction solution was detected by HPLC, the ratio (%) of the molar content of short-chain glycosylated genistein and long-chain glycosylated genistein in the reaction solution to the molar content of total glycosylated genistein in the reaction solution and the content (g/L) of short-chain glycosylated genistein and long-chain glycosylated genistein in the reaction solution were calculated, and detection results were shown in Tables 1 to 2. A method for detecting the ratio (%) of the content of short-chain glycosylated genistein and long-chain glycosylated genistein in the reaction solution to the content of total glycosylated genistein in the reaction solution by HPLC included that the reaction solution was filtered through a 0.22 μm filter membrane, and an Amethyst C18-H column (4.6*250 mm, Sepax, America) was used for detection (see Table 3 for specific detection conditions). The content of long-chain glycosylated genistein=the molar content of hexaglycosylated genistein*the molecular weight of hexaglycosylated genistein+ the molar content of pentaglycosylated genistein*the molecular weight of pentaglycosylated genistein+ the molar content of tetraglycosylated genistein*the molecular weight of tetraglycosylated genistein, and the content of short-chain glycosylated genistein=the molar content of triglycosylated genistein*the molecular weight of triglycosylated genistein+ the molar content of diglycosylated genistein*the molecular weight of diglycosylated genistein+ the molar content of monoglycosylated genistein*the molecular weight of monoglycosylated genistein.

content of long-chain glycosylated genistein in the reaction solution	content of short-chain glycosylated genistein in the reaction solution	ratio of the molar content of long-chain glycosylated genistein to the molar content of total glycosylated genistein in the reaction solution	ratio of the molar content of short-chain glycosylated genistein to the molar content of total glycosylated genistein in the reaction solution	specificity to long-chain glycosylated genistein products in comparison with wild type	increase of the yield of long-chain glycosylated genistein compared with wild-type cyclodextrin glucosyltransferase	Molecule
5.2 g/L	9.7 g/L	25%	75%	significantly improved	62.5%	A156V/L174P: cyclodextrin glucosyltransferase mutant: alanine 156 into valine and leucine 174 into proline of SEQ ID NO: 1 (protein, Translated from synthetic DNA) SPDTSVDNKVNFSTDVIYQIVTDRFADGDRTNNPAGDAFSGDRSNLKLYFGGDWQGIIDKINDGYLTGMGVTALWISQPVENITSVIKYSGVNNTSYHGYWARDFKQTNDAFGDFADFQNLIDTAHAHNIKVVIDFAPNHTSPADRDNPGFAENGVLYDNGSLLGAYSNDTAGPFHHNGGTDFSTIEDGIYKNLYDLADINHNNNAMDAYFKSAIDLWLGMGVDGIRFDAVKHMPFGWQKSFVSSIYGGDHPVFTFGEWYLGADQTDGDNIKFANESGMNLLDFEYAQEVREVFRDKTETMKDLYEVLASTESQYDYINNMVTFIDNHDMDRFQVAGSGTRATEQALALTLTSRGVPAIYYGTEQYMTGDGDPNNRAMMTSFNTGTTAYKVIQALAPLRKSNPAIAYGTTTERWVNNDVLIIERKFGSSAALVAINRNSSAAYPISGLLSSLPAGTYSDVLNGLLNGNSITVGSGGAVTNFTLAAGGTAVWQYTAPETSPAIGNVGPTMGQPGNIVTIDGRGFGGTAGTVYFGTTAVTGSGIVSWEDTQIKAVIPKVAAGKTGVSVKTSSGTASNTFKSFNVLTGDQVTVRFLVNQANTNYGTNVYLVGNAAELGSWDPNKAIGPMYNQVIAKYPSWYYDVSVPAGTKLDFKFIKKGGGTVTWEGGGNHTYTTPASGVGTVTVDWQN
6.8 g/L	9.5 g/L	29%	71%	significantly improved	112.5%	A156V/L174P/A166V: cyclodextrin glucosyltransferase mutant: A156V, L174P and alanine 166 into valine of SEQ ID NO: 1 (protein, Translated from synthetic DNA) SPDTSVDNKVNFSTDVIYQIVTDRFADGDRTNNPAGDAFSGDRSNLKLYFGGDWQGIIDKINDGYLTGMGVTALWISQPVENITSVIKYSGVNNTSYHGYWARDFKQTNDAFGDFADFQNLIDTAHAHNIKVVIDFAPNHTSPADRDNPGFAENGVLYDNGSLLGVYSNDTAGPFHHNGGTDFSTIEDGIYKNLYDLADINHNNNAMDAYFKSAIDLWLGMGVDGIRFDAVKHMPFGWQKSFVSSIYGGDHPVFTFGEWYLGADQTDGDNIKFANESGMNLLDFEYAQEVREVFRDKTETMKDLYEVLASTESQYDYINNMVTFIDNHDMDRFQVAGSGTRATEQALALTLTSRGVPAIYYGTEQYMTGDGDPNNRAMMTSFNTGTTAYKVIQALAPLRKSNPAIAYGTTTERWVNNDVLIIERKFGSSAALVAINRNSSAAYPISGLLSSLPAGTYSDVLNGLLNGNSITVGSGGAVTNFTLAAGGTAVWQYTAPETSPAIGNVGPTMGQPGNIVTIDGRGFGGTAGTVYFGTTAVTGSGIVSWEDTQIKAVIPKVAAGKTGVSVKTSSGTASNTFKSFNVLTGDQVTVRFLVNQANTNYGTNVYLVGNAAELGSWDPNKAIGPMYNQVIAKYPSWYYDVSVPAGTKLDFKFIKKGGGTVTWEGGGNHTYTTPASGVGTVTVDWQN

Second part, the molecule before the results:

Molecule	content of long-chain glycosylated genistein in the reaction solution	content of short-chain glycosylated genistein in the reaction solution	ratio of the molar content of long-chain glycosylated genistein to the molar content of total glycosylated genistein in the reaction solution	ratio of the molar content of short-chain glycosylated genistein to the molar content of total glycosylated genistein in the reaction solution	specificity to long-chain glycosylated genistein products in comparison with wild type	increase of the yield of long-chain glycosylated genistein compared with wild-type cyclodextrin glucosyltransferase
A156V/L174P/A166K: cyclodextrin glucosyltransferase mutant: A156V, L174P and alanine 166 into lysine of SEQ ID NO: 1 (protein, Translated from synthetic DNA) SPDTSVDNKVNFSTDVIYQIVTDRFADGDRTNNPAGDAFSGDRSNLKLYFGGDWQGIIDKINDGYLTGMGVTALWISQPVENITSVIKYSGVNNTSYHGYWARDFKQTNDAFGDFADFQNLIDTAHAHNIKVVIDFAPNHTSPADRDNPGFAENGVLYDNGSLLGKYSNDTAGPFHHNGGTDFSTIEDGIYKNLYDLADINHNNNAMDAYFKSAIDLWLGMGVDGIRFDAVKHMPFGWQKSFVSSIYGGDHPVFTFGEWYLGADQTDGDNIKFANESGMNLLDFEYAQEVREVFRDKTETMKDLYEVLASTESQYDYINNMVTFIDNHDMDRFQVAGSGTRATEQALALTLTSRGVPAIYYGTEQYMTGDGDPNNRAMMTSFNTGTTAYKVIQALAPLRKSNPAIAYGTTTERWVNNDVLIIERKFGSSAALVAINRNSSAAYPISGLLSSLPAGTYSDVLNGLLNGNSITVGSGGAVTNFTLAAGGTAVWQYTAPETSPAIGNVGPTMGQPGNIVTIDGRGFGGTAGTVYFGTTAVTGSGIVSWEDTQIKAVIPKVAAGKTGVSVKTSSGTASNTFKSFNVLTGDQVTVRFLVNQANTNYGTNVYLVGNAAELGSWDPNKAIGPMYNQVIAKYPSWYYDVSVPAGTKLDFKFIKKGGGTVTWEGGGNHTYTTPASGVGTVTVDWQN	5.1 g/L	10.1 g/L	24%	76%	significantly improved	59.4%
A156V/L174P/A166G: cyclodextrin glucosyltransferase mutant: A156V, L174P and alanine 166 into glycine of SEQ ID NO: 1 (protein, Translated from synthetic DNA) SPDTSVDNKVNFSTDVIYQIVTDRFADGDRTNNPAGDAFSGDRSNLKLYFGGDWQGIIDKINDGYLTGMGVTALWISQPVENITSVIKYSGVNNTSYHGYWARDFKQTNDAFGDFADFQNLIDTAHAHNIKVVIDFAPNHTSPADRDNPGFAENGVLYDNGSLLGGYSNDTAGPFHHNGGTDFSTIEDGIYKNLYDLADINHNNNAMDAYFKSAIDLWLGMGVDGIRFDAVKHMPFGWQKSFVSSIYGGDHPVFTFGEWYLGADQTDGDNIKFANESGMNLLDFEYAQEVREVFRDKTETMKDLYEVLASTESQYDYINNMVTFIDNHDMDRFQVAGSGTRATEQALALTLTSRGVPAIYYGTEQYMTGDGDPNNRAMMTSFNTGTTAYKVIQALAPLRKSNPAIAYGTTTERWVNNDVLIIERKFGSSAALVAINRNSSAAYPISGLLSSLPAGTYSDVLNGLLNGNSITVGSGGAVTNFTLAAGGTAVWQYTAPETSPAIGNVGPTMGQPGNIVTIDGRGFGGTAGTVYFGTTAVTGSGIVSWEDTQIKAVIPKVAAGKTGVSVKTSSGTASNTFKSFNVLTGDQVTVRFLVNQANTNYGTNVYLVGNAAELGSWDPNKAIGPMYNQVIAKYPSWYYDVSVPAGTKLDFKFIKKGGGTVTWEGGGNHTYTTPASGVGTVTVDWQN	4.4 g/L	10.9 g/L	20%	80%	significantly improved	–
